For 3 proteins, Km, kcat and kcat/Km results are on record in the PETadex activity labels (doi:10.1002/cbic.202200516).

To fix the notation:
B1: unnamed (protein)
chain: MDGVLWRVRTAALMAALLALAAWALVWASPSVEAQSNPYQRGPNPTRSALTADGPFSVATYTVSRLSVSGFGGGVIYYPTGTSLTFGGIAMSPGYTADASSLAWLGRRLASHGFVVLVINTNSRFDYPDSRASQLSAALNYLRTSSPSAVRARLDANRLAVAGHSMGGGGTLRIAEQNPSLKAAVPLTPWHTDKTFNTSVPVLIVGAEADTVAPVSQHAIPFYQNLPSTTPKVYVELDNASHFAPNSNNAAISVYTISWMKLWVDNDTRYRQFLCNVNDPALSDFRTNNRHCQ
B2: unnamed (protein)
chain: MAVMTPRRERSSLLSRALQVTAAAATALVTAVSLAAPAHAANPYERGPNPTDALLEASSGPFSVSEENVSRLSASGFGGGTIYYPRENNTYGAVAISPGYTGTEASIAWLGERIASHGFVVITIDTITTLDQPDSRAEQLNAALNHMINRASSTVRSRIDSSRLAVMGHSMGGGGTLRLASQRPDLKAAIPLTPWHLNKNWSSVTVPTLIIGADLDTIAPVATHAKPFYNSLPSSISKAYLELDGATHFAPNIPNKIIGKYSVAWLKRFVDNDTRYTQFLCPGPRDGLFGEVEEYRSTCPF
B3: unnamed (protein)
chain: MNFPRASRLMQAAVLGGLMAVSAAATAQTNPYARGPNPTAASLEASAGPFTVRSFTVSRPSGYGAGTVYYPTNAGGTVGAIAIVPGYTARQSSIKWWGPRLASHGFVVITIDTNSTLDQPSSRSSQQMAALRQVASLNGTSSSPIYGKVDTARMGVMGWSMGGGGSLISAANNPSLKAAAPQAPWDSSTNFSSVTVPTLIFACENDSIAPVNSSALPIYDSMSRNAKQFLEINGGSHSCANSGNSNQALIGKKGVAWMKRFMDNDTRYSTFACENPNSTRVSDFRTANCS

Substrate in one series: BHET
The settings on record: 50 °C.
With B1, the Km came to 960 µM, the kcat turned out to be 6.2 s⁻¹ and the kcat/Km turned out to be 6460 M⁻¹ s⁻¹.
For B2, the Km is 230 µM, the kcat is 1.1 s⁻¹ and the kcat/Km came to 4780 M⁻¹ s⁻¹.

Substrate in a further series: MHET
The settings on record: 50 °C.
Regarding B1, the Km is 1200 µM, the kcat was 0.048 s⁻¹ and the kcat/Km turned out to be 40 M⁻¹ s⁻¹.
On to B2, for which the Km stood at 3800 µM, the kcat worked out at 0.043 s⁻¹ and the kcat/Km came to 11.3 M⁻¹ s⁻¹.

Substrate in the next series: PET-02mer
The settings on record: 50 °C.
On to B1, for which the Km was 790 µM, the kcat turned out to be 300 s⁻¹ and the kcat/Km was 380000 M⁻¹ s⁻¹.
With B2, the Km turned out to be 170 µM, the kcat worked out at 62 s⁻¹ and the kcat/Km was 365000 M⁻¹ s⁻¹.

Substrate in the next series: BHET
The settings on record: 50 °C; part of the chain shown.
Turning to B3, the Km was 1400 µM, the kcat turned out to be 4.8 s⁻¹ and the kcat/Km is 3430 M⁻¹ s⁻¹.

Substrate in another series: PET-02mer
The settings on record: 50 °C; part of the chain shown.
Take B3: the Km amounted to 58 µM, the kcat was 23 s⁻¹ and the kcat/Km was 397000 M⁻¹ s⁻¹.
